Reference: US20100311844A1, “Spontaneously Forming Ellipsoidal Phospholipid Unilamellar Vesicles” (priority 2006, published 2010)
Entries after “also recorded” stand apart in the source; their conditions may differ.

T1: SapC induced membrane fusion (Homo sapiens, UniProt P07602)
T1 sequence (P07602 311-390 limits assumed): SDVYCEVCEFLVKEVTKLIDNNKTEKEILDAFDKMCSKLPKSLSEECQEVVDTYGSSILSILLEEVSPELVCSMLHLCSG

B1: SapC: human Saposin C, over expressed in E. coli as His-tag protein, HPLC purified (protein)
chain: T1 sequence (P07602 311-390 limits assumed)
modifications: His-tag
notes: human Saposin C, over expressed in E. coli as His-tag protein, HPLC purified

Assays:
[1] = target: T1, SapC induced membrane fusion; settings: reported by Wang et al.; cited from earlier work
[2] = SANS of non-doped, H1-, H2- and SapC-doped DOPS/DPPC/DHPC mixtures (modified Guinier plot, ellipsoidal shell model fit); assay type: physicochemical; settings: for effect of peptide on bilayer stability: SANS result; for effect of peptide on ULV size and size distribution / effect of peptide on membrane thickness: peptide 62.5 μM
Protocol: For preparation of liposomes containing protein, SapC was over expressed in E. coli cells using the IPTG-inducing pET system, and His-tag proteins were eluted from nickel columns. After dialysis, the proteins were further purified by HPLC chromatography as follows: The C4 reverse phase column was equilibrated with 0.1% trifluoroacetic acid (TFA) for 10 minutes, then the proteins were eluted in a linear (0-100%) gradient of 0.1% TFA in acetonitrile over 60 minutes. The major protein peak was collected and lyophilized, while protein concentrations were determined as described previously. H1 (YCEVCEFLVKEVTKLID) and H2 (EKEILDAF DKMCSKLPK) peptides were synthesized by SynPep Corp. (California, USA) and dissolved in D2O at a concentration of 1.5 mg/mL. The 0.1 wt. % lipid solution with [DOPS]/[DPPC]=10 and ([DPPC]+[DOPS]/DHPC=4 was then added to the two peptide solutions (1.5 mg/mL) at a volume ratio of 12:1, and the SapC solution with a volume ratio of 1:1, yielding a final peptide (or SapC) concentration of 62.5 μM, (molar ratio of [lipid]/[peptide]=22/1) a concentration higher than the SapC required to induce membrane destabilization. A sample containing only 6.25 μM of SapC ([lipid]/[SapC]=220/1) was also prepared for comparison purposes.
To determine the structure and stability of the resulting liposomes, the homogenized 10 wt. % solutions are first progressively diluted into 5, 2, 1, 0.5 and 0.1 wt. % samples. Prior to DLS measurements, the 0.1 wt. % stock lipid samples are diluted 5, 50 and 200 fold, and are analyzed using an N4^+ particle sizer (Coulter, Miami, Fla.). Using this method, it was determined that diluting the system had no effect on the size of the particles. For SANS experiments, the same sample preparation protocol was applied to the [DOPS]/[DPPC]=10 sample except that D2O (99.9%, Chalk River Laboratories, Chalk River, ON), instead of H2O, was used to obtain a sample with a total lipid concentration of 0.5 wt. %. The 0.5 wt. % sample was then further diluted into 0.1 and 0.05 wt. % mixtures using an acidic buffer composed of equal-volumes of 0.1N sodium acetate (NaAc) and 0.1N acetic acid (HAc).
SANS experiments were carried out on the 30 m NG7 SANS instrument located at the National Institute of Standards and Technology (NIST) Center for Neutron Research (NCNR, Gaithersburg, Md., USA). 8.09 Å wavelength (λ) neutrons, a neutron focusing lens and a long sample-to-detector distance (SDD=15.3 m) were used to reach the lowest scattering vectors [q=4π/λ·sin(θ/2), where θ is the scattering angle]. Two other SDD (5 and 1 m) were also used, covering a combined q range from 0.002 to 0.35 Å^−1 for all three SDD. Raw 2-D data were corrected for detector sensitivity, background, empty cell scattering and sample transmission. The corrected data were then circularly averaged, around the beam center, yielding the customary 1-D data. […] The incoherent plateau was determined by averaging the intensity of 10-20 high q data points and then subtracted from the reduced data.
For q>0.06 Å^−1 the differences in intensity among the three data sets (FIG. 2) are indistinguishable. Analysis of a modified Guinier plot^30 (also known as Kratky-Porod plot) applied to all three samples, where ln(I·q^2) has a linear relationship with q^2 in the range between 5×10^−3 and 2.5×10^−2 Å^−2, indicate the existence of a lamellar structure. […] The lines represent the best-fits to the data. The bilayer thickness is then derived from the square root of the slope multiplying by √{square root over (12)}.
The model for a unilamellar tri-axial ellipsoidal vesicle is depicted as an ellipsoidal shell (FIG. 4) with different core lengths along the three prime axes, acore, bcore and ccore (acore≦bcore≦ccore). The shell lengths along the axes, ashell, bshell and cshell, are defined as (acore+l), (bcore+l) and (ccore+l), respectively, where l is the bilayer thickness. […]

[3] = AFM, supported membranes; cited from earlier work

Row | Molecule | inhibition of SapC induced membrane fusion [1] | effect of peptide on bilayer stability [2] | effect of peptide on ULV size and size distribution [2] | effect of peptide on membrane thickness [2] | effect on destabilization and restructuring of lipid membranes [3] | effect of SapC on ULV ([2]; SapC 6.25 μM, [lipid]/[SapC]=220/1) | effect of SapC on ULV ([2]; SapC 62.5 μM, [lipid]/[SapC]=22/1, acetate D2O buffer)
1 | YCEVCEFLVKEVTKLID [H1, helical domain peptide of SapC, synthesized by SynPep Corp] | can inhibit SapC induced membrane fusion | do not destabilize the bilayer morphology | does not appear to modify ULV size or their size distribution | small decreases to the membrane thickness | neither H1 nor H2 alone have significant influence on membrane structure | – | –
2 | EKEILDAFDKMCSKLPK [H2, helical domain peptide of SapC, synthesized by SynPep Corp] | can inhibit SapC induced membrane fusion | do not destabilize the bilayer morphology | shifts the equilibrium between the two ULV aggregates present | small decreases to the membrane thickness | neither H1 nor H2 alone have significant influence on membrane structure | – | –
3 | B1 | – | – | – | – | can destabilize and restructure the acidic membrane | ULV structure is unperturbed; also recorded: do not appear to perturb the size of ULV or their membrane structure | promotes aggregation of ULV
